{"source": "patent US20200002426A1", "about": "(published 2020)", "binders": {"B1": {"name": "Bi-PLB-1.2 (antibody)", "chain 1": "not shown", "chain 2": "DIQMTQSPSFLSASVGDRVTITCKASQNVGTNVAWYQQKPGKAPKALIYSASYRYSGVPSRFSGSGSGTEFTLTISSLQPEDFATYYCQQYYSYPYTFGQGTKLEIKRTVAAPSVFIFPPSDEQLKSGTASVVCLLNNFYPREAKVQWKVDNALQSGNSQESVTEQDSKDSTYSLSSTLTLSKADYEKHKVYACEVTHQGLSSPVTKSFNRGEC"}}, "key": {"[1]": {"target": "FITC labeled human PD-L1-Fc protein (human, UniProt Q9NZQ7 19-238, FITC labeled (sites not given))", "sequence (Q9NZQ7 19-238)": "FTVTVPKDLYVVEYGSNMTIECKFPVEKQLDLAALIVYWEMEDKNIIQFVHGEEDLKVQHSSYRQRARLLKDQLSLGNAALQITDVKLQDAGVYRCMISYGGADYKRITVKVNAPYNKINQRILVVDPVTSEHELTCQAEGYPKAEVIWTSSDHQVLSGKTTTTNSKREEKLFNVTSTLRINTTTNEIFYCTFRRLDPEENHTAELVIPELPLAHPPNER", "experiment": "FACS blocking of PD-L1/PD-1"}, "huTGF-β1": {"target": "huTGF-β1 (human, UniProt P01137 279-390)", "sequence (P01137 279-390)": "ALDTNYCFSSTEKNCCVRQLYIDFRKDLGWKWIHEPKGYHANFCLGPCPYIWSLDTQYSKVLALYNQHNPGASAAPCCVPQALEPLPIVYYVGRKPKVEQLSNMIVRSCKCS", "experiment": "ELISA; simultaneous binding, detected with biotinylated hu PD-L1"}, "[2]": {"target": "human PD-L1 on CHO-K1 cells (human, UniProt Q9NZQ7 19-290)", "sequence (Q9NZQ7 19-290)": "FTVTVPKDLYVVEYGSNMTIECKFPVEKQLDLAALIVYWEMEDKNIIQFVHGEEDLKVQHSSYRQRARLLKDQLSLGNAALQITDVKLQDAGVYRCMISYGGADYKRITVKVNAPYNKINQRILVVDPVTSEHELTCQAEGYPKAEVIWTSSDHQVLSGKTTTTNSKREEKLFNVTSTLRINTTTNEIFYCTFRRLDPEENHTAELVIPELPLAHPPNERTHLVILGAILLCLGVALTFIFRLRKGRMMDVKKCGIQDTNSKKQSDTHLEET", "experiment": "FACS binding"}, "His tagged TGF-β1": {"target": "His tagged TGF-β1 (UniProt P01137 279-390)", "sequence (P01137 279-390)": "as the sequence (P01137 279-390) above", "experiment": "BLI"}, "His-tagged huPD-L1": {"target": "His-tagged huPD-L1 (human, UniProt Q9NZQ7 19-238)", "sequence (Q9NZQ7 19-238)": "as the sequence (Q9NZQ7 19-238) above", "experiment": "BLI"}}, "data": [{"binder": "B1", "values": [{"measurement": "IC50", "setting": "[1]", "value": 1.23, "unit": "nM"}, {"measurement": "EC50", "setting": "huTGF-β1", "value": 10.3, "unit": "nM"}, {"measurement": "EC50", "setting": "[2]", "value": 1.6, "unit": "nM"}, {"measurement": "Kd", "setting": "His tagged TGF-β1", "value": 0.28, "unit": "nM"}, {"measurement": "Kd", "setting": "His-tagged huPD-L1", "value": 0.83, "unit": "nM"}]}]}
